This is an account of results in patent US20110311550A1.

Like-named read-outs stand apart in the source and are kept apart here.

Assay [1] addresses HCV E1E2 complex, isolate H77 (genotype 1a) (hepatitis C virus genotype 1a, isolate H77) (UniProt P27958). As to the kind of experiment: ELISA, mAb with E1E2 (H77), then CD81-LEL plate.
For assay [2] the target is unchanged. As to the kind of experiment: apparent affinity: half-maximal binding, ELISA on lectin-captured E1E2. In general terms: An ELISA detects its analyte on a solid surface through an enzyme-linked reagent.
Assay [3] deals with HCV E1E2 complex, isolate HCV-1 (genotype 1a), vaccinia-expressed (hepatitis C virus genotype 1a, isolate HCV-1) (UniProt P26664). Described as above.
For assay [4], the target named is HCV E1E2 complex, isolate H77 (genotype 1a) (hepatitis C virus genotype 1a, isolate H77) (UniProt P27958).
The target is the same in assay [5]. The experiment in a line: competition ELISA on lectin-captured H77 E1E2; competitor: Fab R1.
The target is the same in assay [6]. The experiment in a line: competition ELISA on lectin-captured H77 E1E2; competitor: Fab T1.
Assay [7] has the same target. The experiment in a line: competition ELISA on lectin-captured H77 E1E2; competitor: Fab Q1.
Assay [8] shares this target. The experiment in a line: competition ELISA on lectin-captured H77 E1E2; competitor: Fab P5.
The target is the same in assay [9]. The experiment in a line: competition ELISA on lectin-captured H77 E1E2; competitor: Fab Q2.
The target of assay [10] is E1E2 complex of HCV isolate H77 (genotype 1a), wild type (HCV isolate H77) (UniProt P27958). As to the kind of experiment: competition ELISA on H77 E1E2; competitor m42 (Fab P1).
Assay [11] has the same target. The experiment in a line: competition ELISA on H77 E1E2; competitor m37 (Fab N1).
Assay [12] shares this target. As to the kind of experiment: competition ELISA on H77 E1E2; competitor m46 (Fab P4).
For assay [13] the target is unchanged. As to the kind of experiment: competition ELISA on H77 E1E2; competitor m39 (Fab N3).
The target in assay [14] is HCV E1E2 complex, isolate H77 (genotype 1a) (hepatitis C virus genotype 1a, isolate H77) (UniProt P27958). The experiment in a line: competition ELISA on lectin-captured H77 E1E2; competitor: Fab U1.
For assay [15], the target named is E1E2 complex of HCV isolate H77 (genotype 1a), wild type (HCV isolate H77) (UniProt P27958). The experiment in a line: competition ELISA on H77 E1E2; competitor m44 (Fab P2).
For assay [16] the target is unchanged. The experiment in a line: competition ELISA on H77 E1E2; competitor m38 (Fab N2).
The target is the same in assay [17]. As to the kind of experiment: competition ELISA on H77 E1E2; competitor m43 (Fab P1a).
The target in assay [18] is HCV E1E2 complex, isolate H77 (genotype 1a) (hepatitis C virus genotype 1a, isolate H77) (UniProt P27958). The experiment in a line: competition ELISA on lectin-captured H77 E1E2; competitor: AR1B (in the Blocking Fab columns).
For assay [19], the target named is E1E2 complex of HCV isolate H77 (genotype 1a), wild type (HCV isolate H77) (UniProt P27958). As to the kind of experiment: competition ELISA on H77 E1E2; competitor m40 (Fab N4).
Assay [20] shares this target. As to the kind of experiment: competition ELISA on H77 E1E2; competitor m45 (Fab P3).
For assay [21], the target named is HCV E1E2 complex, isolate H77 (genotype 1a) (hepatitis C virus genotype 1a, isolate H77) (UniProt P27958). The experiment in a line: competition ELISA on lectin-captured H77 E1E2; competitor: Fab P6.
For assay [22] the target is unchanged. The experiment in a line: competition ELISA on lectin-captured H77 E1E2; competitor: AR2A (in the Blocking Fab columns).
Assay [23] shares this target. The experiment in a line: competition ELISA on lectin-captured H77 E1E2; competitor: Fab V1.
The target is the same in assay [24]. The experiment in a line: competition ELISA on lectin-captured H77 E1E2; competitor: Fab S1.
Assay [25] deals with E1E2 complex of HCV isolate H77 (genotype 1a), wild type (HCV isolate H77) (UniProt P27958). The experiment in a line: competition ELISA on H77 E1E2; competitor m41 (Fab O1).

Consider MAb AR3D (IgG1 from Fab L4) (antibody), for which, in assay [1], the IC50 (as a rule, the point on the concentration scale where inhibition reaches its midpoint) was 1 nM. For the same substance, the figures for the concentration for a half-maximal effect (EC50) in [2] and in assay [3] were 4 nM and 2.4 nM, respectively.
MAb AR3D (antibody) displayed a residual binding in assay [4] of 58%.
In the case of mouse MAb A4 (antibody), the residual binding in assay [5] amounted to 99%; in assay [6], 99%; in assay [7] it was 95%; in assay [8] it was 100%; in assay [9], 98%; in assay [14], 101%. Moreover, the residual binding amounted to 85% in [18]; 99% in assay [21]; 87% in [22]; 99% in assay [23]; 100% in [24]. For the same substance, the % residual binding in assay [10] amounted to 101%; in assay [11] it was 100%; in [12], 98%; in [13], 96%; in assay [15], 102%; in assay [16], 101%. Also, the % residual binding in assay [17] came to 100%; in [19] it was 100%; in assay [20], 100%; in assay [25] it was 96%.
